Source: PMC6786869

Columns and labels:
[1] = target: Als1p with the V326N mutation, V5-tagged, displayed on the surface of S. cerevisiae cells (Candida albicans) (UniProt Q5A8T4); test: single-cell force spectroscopy (AFM); one live yeast cell on a polydopamine-coated tipless cantilever brought repeatedly into contact with another cell on a hydrophobic substrate; PBS, 20 C; 500 adhesion-rupture trials per cell pair
[2] = target: Wild-type Als1p (Candida albicans cell adhesion protein Als1p), V5-tagged, displayed on the surface of S. cerevisiae cells (Candida albicans) (UniProt Q5A8T4); test: as above

Row | Substance | % of cell pairs binding [1] [%] | mean maximum rupture force per pair [1] [pN] | mean rupture force [1] [pN] | % of cell pairs binding [2] [%] | mean maximum rupture force per pair [2] [pN] | mean rupture force [2] [pN]
1 | Als1p with the V326N mutation, V5-tagged, displayed on the surface of S. cerevisiae cells (from UniProt Q5A8T4 18-1238) (natural protein) | 7 | 667 | 517 | – | – | –
2 | Wild-type Als1p (Candida albicans cell adhesion protein Als1p), V5-tagged, displayed on the surface of S. cerevisiae cells (from UniProt Q5A8T4 18-1238) (natural protein) | 33 | 953 | 483 | 97 | 3330 | 1510
